B1: Mss116p (Saccharomyces cerevisiae S288C) (protein)
chain: NHITWAVSRRLYNDGNRDQRNFGRNQRNNNSNRYRNSRFNSRPRTRSREDDDEVHFDKTTFSKLIHVPKEDNSKEVTLDSLLEEGVLDKEIHKAITRMEFPGLTPVQQKTIKPILSSEDHDVIARAKTGTGKTFAFLIPIFQHLINTKFDSQYMVKAVIVAPTRDLALQIEAEVKKIHDMNYGLKKYACVSLVGGTDFRAAMNKMNKLRPNIVIATPGRLIDVLEKYSNKFFRFVDYKVLDEADRLLEIGFRDDLETISGILNEKNSKSADNIKTLLFSATLDDKVQKLANNIMNKKECLFLDTVDKNEPEAHERIDQSVVISEKFANSIFAAVEHIKKQIKERDSNYKAIIFAPTVKFTSFLCSILKNEFKKDLPILEFHGKITQNKRTSLVKRFKKDESGILVCTDVGARGMDFPNVHEVLQIGVPSELANYIHRIGRTARSGKEGSSVLFICKDELPFVRELEDAKNIVIAKQEKYEPSEEIKSEVLEAVTEEPEDISDIVISLISSYRSCIKEYRFSERRILPEIASTYGVLLNDPQLKIPVSRRFLDKLGLSRSPIGKAMFEIRDYSSRDGNNKSYDYDDDSEISFRGNKNYNNRSQNRDYDDEPFRRSNNNRRSFSRSNDKNNYSSRNSNIY
B2: Mss116p (Saccharomyces cerevisiae S288C; Q412A) (protein)
chain: NHITWAVSRRLYNDGNRDQRNFGRNQRNNNSNRYRNSRFNSRPRTRSREDDDEVHFDKTTFSKLIHVPKEDNSKEVTLDSLLEEGVLDKEIHKAITRMEFPGLTPVQQKTIKPILSSEDHDVIARAKTGTGKTFAFLIPIFQHLINTKFDSQYMVKAVIVAPTRDLALQIEAEVKKIHDMNYGLKKYACVSLVGGTDFRAAMNKMNKLRPNIVIATPGRLIDVLEKYSNKFFRFVDYKVLDEADRLLEIGFRDDLETISGILNEKNSKSADNIKTLLFSATLDDKVQKLANNIMNKKECLFLDTVDKNEPEAHERIDQSVVISEKFANSIFAAVEHIKKQIKERDSNYKAIIFAPTVKFTSFLCSILKNEFKKDLPILEFHGKITANKRTSLVKRFKKDESGILVCTDVGARGMDFPNVHEVLQIGVPSELANYIHRIGRTARSGKEGSSVLFICKDELPFVRELEDAKNIVIAKQEKYEPSEEIKSEVLEAVTEEPEDISDIVISLISSYRSCIKEYRFSERRILPEIASTYGVLLNDPQLKIPVSRRFLDKLGLSRSPIGKAMFEIRDYSSRDGNNKSYDYDDDSEISFRGNKNYNNRSQNRDYDDEPFRRSNNNRRSFSRSNDKNNYSSRNSNIY
B3: Mss116p (Saccharomyces cerevisiae S288C; S305A) (protein)
chain: NHITWAVSRRLYNDGNRDQRNFGRNQRNNNSNRYRNSRFNSRPRTRSREDDDEVHFDKTTFSKLIHVPKEDNSKEVTLDSLLEEGVLDKEIHKAITRMEFPGLTPVQQKTIKPILSSEDHDVIARAKTGTGKTFAFLIPIFQHLINTKFDSQYMVKAVIVAPTRDLALQIEAEVKKIHDMNYGLKKYACVSLVGGTDFRAAMNKMNKLRPNIVIATPGRLIDVLEKYSNKFFRFVDYKVLDEADRLLEIGFRDDLETISGILNEKNSKSADNIKTLLFAATLDDKVQKLANNIMNKKECLFLDTVDKNEPEAHERIDQSVVISEKFANSIFAAVEHIKKQIKERDSNYKAIIFAPTVKFTSFLCSILKNEFKKDLPILEFHGKITQNKRTSLVKRFKKDESGILVCTDVGARGMDFPNVHEVLQIGVPSELANYIHRIGRTARSGKEGSSVLFICKDELPFVRELEDAKNIVIAKQEKYEPSEEIKSEVLEAVTEEPEDISDIVISLISSYRSCIKEYRFSERRILPEIASTYGVLLNDPQLKIPVSRRFLDKLGLSRSPIGKAMFEIRDYSSRDGNNKSYDYDDDSEISFRGNKNYNNRSQNRDYDDEPFRRSNNNRRSFSRSNDKNNYSSRNSNIY
B4: Mss116p (Saccharomyces cerevisiae S288C; R245E) (protein)
chain: NHITWAVSRRLYNDGNRDQRNFGRNQRNNNSNRYRNSRFNSRPRTRSREDDDEVHFDKTTFSKLIHVPKEDNSKEVTLDSLLEEGVLDKEIHKAITRMEFPGLTPVQQKTIKPILSSEDHDVIARAKTGTGKTFAFLIPIFQHLINTKFDSQYMVKAVIVAPTRDLALQIEAEVKKIHDMNYGLKKYACVSLVGGTDFRAAMNKMNKLRPNIVIATPGELIDVLEKYSNKFFRFVDYKVLDEADRLLEIGFRDDLETISGILNEKNSKSADNIKTLLFSATLDDKVQKLANNIMNKKECLFLDTVDKNEPEAHERIDQSVVISEKFANSIFAAVEHIKKQIKERDSNYKAIIFAPTVKFTSFLCSILKNEFKKDLPILEFHGKITQNKRTSLVKRFKKDESGILVCTDVGARGMDFPNVHEVLQIGVPSELANYIHRIGRTARSGKEGSSVLFICKDELPFVRELEDAKNIVIAKQEKYEPSEEIKSEVLEAVTEEPEDISDIVISLISSYRSCIKEYRFSERRILPEIASTYGVLLNDPQLKIPVSRRFLDKLGLSRSPIGKAMFEIRDYSSRDGNNKSYDYDDDSEISFRGNKNYNNRSQNRDYDDEPFRRSNNNRRSFSRSNDKNNYSSRNSNIY
B5: Mss116p (Saccharomyces cerevisiae S288C; T307A) (protein)
chain: NHITWAVSRRLYNDGNRDQRNFGRNQRNNNSNRYRNSRFNSRPRTRSREDDDEVHFDKTTFSKLIHVPKEDNSKEVTLDSLLEEGVLDKEIHKAITRMEFPGLTPVQQKTIKPILSSEDHDVIARAKTGTGKTFAFLIPIFQHLINTKFDSQYMVKAVIVAPTRDLALQIEAEVKKIHDMNYGLKKYACVSLVGGTDFRAAMNKMNKLRPNIVIATPGRLIDVLEKYSNKFFRFVDYKVLDEADRLLEIGFRDDLETISGILNEKNSKSADNIKTLLFSAALDDKVQKLANNIMNKKECLFLDTVDKNEPEAHERIDQSVVISEKFANSIFAAVEHIKKQIKERDSNYKAIIFAPTVKFTSFLCSILKNEFKKDLPILEFHGKITQNKRTSLVKRFKKDESGILVCTDVGARGMDFPNVHEVLQIGVPSELANYIHRIGRTARSGKEGSSVLFICKDELPFVRELEDAKNIVIAKQEKYEPSEEIKSEVLEAVTEEPEDISDIVISLISSYRSCIKEYRFSERRILPEIASTYGVLLNDPQLKIPVSRRFLDKLGLSRSPIGKAMFEIRDYSSRDGNNKSYDYDDDSEISFRGNKNYNNRSQNRDYDDEPFRRSNNNRRSFSRSNDKNNYSSRNSNIY

Substrate: Nc1ncnc2c1ncn2[C@@H]1O[C@H](COP(=O)(O)OP(=O)(O)OP(=O)(O)O)[C@@H](O)[C@H]1O
Test: ATPase assay, free ADP versus time, initial velocities
Assay type: biochemical, Saccharomyces cerevisiae
Settings: 37 °C, saturating aI5β intron RNA transcript

Row | Protein | Km [µM] | kcat
1 | B1 | 167 ± 20 | 0.496 ± 0.0603 s⁻¹
2 | B2 | 177 ± 33 | 0.393 ± 0.0933 s⁻¹
3 | B3 | 162 ± 16 | 0.322 ± 0.142 s⁻¹
4 | B4 | 554 ± 153 | 8.18 ± 0.08 ^e^, ^f
5 | B5 | 180 ± 4 | 0.061 ± 0.0045 s⁻¹

Source: publication PMC2878758
